What was measured:
[1] = target: T1, S. cerevisiae Ku80vWA (residues 2-200) (S. cerevisiae, UniProt Q04437 2-200); assay: ITC
T1 sequence (looked up): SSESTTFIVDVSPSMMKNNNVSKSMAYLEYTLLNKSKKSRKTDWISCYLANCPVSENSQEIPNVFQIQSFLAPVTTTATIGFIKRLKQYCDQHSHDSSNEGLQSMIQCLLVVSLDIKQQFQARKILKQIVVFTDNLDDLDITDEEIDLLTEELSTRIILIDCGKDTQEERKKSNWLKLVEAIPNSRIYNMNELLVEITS

[2] = target: KlCdc13EBM-N (KlCdc13 residues 213-222) (Kluyveromyces lactis); assay: ITC
[3] = target: K. lactis Cdc13EBM (KlCdc13 residues 213-240) (Kluyveromyces lactis); assay: ITC
[4] = target: T2, S. cerevisiae Ku70/80 heterodimer (S. cerevisiae, UniProt P32807 1-602; Q04437 1-629); assay: pull-down
T2 sequence (looked up) 1: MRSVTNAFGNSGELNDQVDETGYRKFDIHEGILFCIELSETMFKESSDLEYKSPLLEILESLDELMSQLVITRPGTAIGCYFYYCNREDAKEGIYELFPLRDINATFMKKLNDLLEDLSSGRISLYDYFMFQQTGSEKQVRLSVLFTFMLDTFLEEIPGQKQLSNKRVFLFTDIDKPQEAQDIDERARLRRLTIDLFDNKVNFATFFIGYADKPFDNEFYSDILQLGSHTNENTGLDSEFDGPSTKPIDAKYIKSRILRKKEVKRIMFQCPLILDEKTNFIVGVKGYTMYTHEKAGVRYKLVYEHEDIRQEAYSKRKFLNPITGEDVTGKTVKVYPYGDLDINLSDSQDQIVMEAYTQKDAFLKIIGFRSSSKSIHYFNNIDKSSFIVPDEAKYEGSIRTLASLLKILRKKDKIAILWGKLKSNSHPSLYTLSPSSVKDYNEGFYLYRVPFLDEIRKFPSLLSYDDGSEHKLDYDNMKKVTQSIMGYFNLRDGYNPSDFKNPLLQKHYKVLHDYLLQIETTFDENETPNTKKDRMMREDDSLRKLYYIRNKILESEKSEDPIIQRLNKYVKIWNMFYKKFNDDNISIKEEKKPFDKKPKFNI
T2 sequence (looked up) 2: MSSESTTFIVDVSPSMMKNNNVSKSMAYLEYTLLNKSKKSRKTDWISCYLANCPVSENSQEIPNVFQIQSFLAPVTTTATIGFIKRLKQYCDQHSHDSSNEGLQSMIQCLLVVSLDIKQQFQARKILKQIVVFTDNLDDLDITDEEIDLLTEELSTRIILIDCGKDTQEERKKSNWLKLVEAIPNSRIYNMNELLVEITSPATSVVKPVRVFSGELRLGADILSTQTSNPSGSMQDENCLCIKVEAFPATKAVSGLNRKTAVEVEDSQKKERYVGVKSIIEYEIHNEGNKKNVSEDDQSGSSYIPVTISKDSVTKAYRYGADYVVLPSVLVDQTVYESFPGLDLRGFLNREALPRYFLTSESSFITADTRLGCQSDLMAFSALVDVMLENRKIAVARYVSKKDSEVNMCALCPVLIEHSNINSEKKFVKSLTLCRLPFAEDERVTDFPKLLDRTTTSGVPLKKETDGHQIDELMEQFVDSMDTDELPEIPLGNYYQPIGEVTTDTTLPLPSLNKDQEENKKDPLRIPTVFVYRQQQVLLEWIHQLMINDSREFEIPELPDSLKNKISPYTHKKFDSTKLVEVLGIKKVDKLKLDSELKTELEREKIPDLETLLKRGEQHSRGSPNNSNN

EKISNSKLLSLLRSKT (peptide, UniProt P11978 100-115, looked up) [S. cerevisiae Sir4KBM (residues 100-115)] was tested. Which Kd [1] did it give?
The Kd was 5.1 µM.

Does EKISNSKLRSLLRSKT (peptide, UniProt P11978 100-115, looked up) [Sir4KBM L108R] bind [1]?
Result: binds

B1: N-terminal domain of K. lactis Est1 (KlEst1, residues 2-600) (domain or fragment)
chain: DQKLNTDLQETFSGFQKQLQSVLETDFFRDDSLMKGAIQMIHSKIMQMLLQSLIPEGLHQDITTDTGSKKSEIRSSDAHRILDLTWKHVHYPIFKYFQNWRNRNVAEGSRPNYAGHRQLNSILQKIFPQIHKLYYSTLELIFANYNLTALIPSDTRSKLNISTKKLNDDASNVLKPEDSFSIDCVMASQRCLLYIGCSQRYKIIMEHLSDRYQQADFQKPLRYLDIASTIVPSVGETFLQRGICYTHTKNFGNAAYQFVRSSLSRLPSDAGIPNFTNLLGDPNGSLFKKLLNSLDDLKVQETIKKRIINMEIMEFYILPLIGSHIFPQTWKNNRHSDRLKHFQTLLFDKIEIRYIKNISMIFQDLILLIGSFHMYQMINGVSSNTTSSAATIMPNDKTLMNGNGSANSINNSGNSNIRSIQSETKFLEFIFKFFTHLIDKVIMKEFKNCEMFQYLAMARIMMCWIKSHKNVLKFAHRSTSFCQSMVNLTNELLSSNDLSISFEHLHRPTRDYFYEEDIMLKEFGPTKFTLSDFNDEKLLSMDNLPDRLVGKSKNKLTAKEEHSSRVQVLVYSNKKFLEKNCCGFKLDTEKKRYVHTAVK
How did the Kd [2] turn out when B1 was run?
The Kd was 15.3 µM.

And the Kd [3]?
The Kd was 5.9 µM.

Does EKISNSKLLSLLRSKT (peptide, UniProt P11978 100-115, looked up) [Sir4KBM (GST pull-down)] bind [4]?
Result: binds

From paper PMC5839504 (Cell, 2017)
